From the Human Domainome abundance scans (Beltran et al. 2025)
± gives the uncertainty stated by the source.

B1: Apoptosis-associated speck-like protein containing a CARD, residues 114 to 194; numbered along this chain, Q9ULZ3 (parent)
chain: FIDQHRAALIARVTNVEWLLDALYGKVLTDEQYQAVRAEPTNPSKMRKLFSFTPAWNWTCKDLLLQALRESQSYLVEDLER

Variants of: B1
Assay: abundance fitness (aPCA) (normalised: wild type 0, dead -1); higher = more abundant; growth selection in yeast, the domain comes from the species named
Details: Homo sapiens

Row | Variant | abundance fitness
1 | FIDQHRAALIARVTNVEWLLDALYGKVLTDEQYQAVRAEPTNPSKMRKLFSFTPAWNWTCKDPLLQALRESQSYLVEDLER [L63P] | -0.438 ± 0.075
2 | FIDQHRAALIARVTNVEWLLDALYGKVLTDEQYQAVRAEPTNPSKMRKLFSFTPAWNWTCKDFLLQALRESQSYLVEDLER [L63F] | -0.381 ± 0.073
3 | FIDQHRAALIARVTNVEWLLDALYGKVLTDEQYQAVRAEPTNPSKMRKLFSFTPAWNWTCKDMLLQALRESQSYLVEDLER [L63M] | 0.056 ± 0.095
4 | FIDQHRAALIARVTNVEWLLDALYGKVLTDEQYQAVRAEPTNPSKMRKLFSFTPAWNWTCKDVLLQALRESQSYLVEDLER [L63V] | -0.232 ± 0.055
5 | FIDQHRAALIARVTNVEWLLDALYGKVLTDEQYQAVRAEPTNPSKMRKLFSFTPAWNWTCKDGLLQALRESQSYLVEDLER [L63G] | -0.862 ± 0.082
6 | FIDQHRAALIARVTNVEWLLDALYGKVLTDEQYQAVRAEPTNPSKMRKLFSFTPAWNWTCKDWLLQALRESQSYLVEDLER [L63W] | -0.543 ± 0.096
7 | FIDQHRAALIARVTNVEWLLDALYGKVLTDEQYQAVRAEPTNPSKMRKLFSFTPAWNWTCKDKLLQALRESQSYLVEDLER [L63K] | -0.298 ± 0.11
8 | FIDQHRAALIARVTNVEWLLDALYGKVLTDEQYQAVRAEPTNPSKMRKLFSFTPAWNWTCKDILLQALRESQSYLVEDLER [L63I] | -0.359 ± 0.2
9 | FIDQHRAALIARVTNVEWLLDALYGKVLTDEQYQAVRAEPTNPSKMRKLFSFTPAWNWTCKDYLLQALRESQSYLVEDLER [L63Y] | -0.028 ± 0.12
10 | FIDQHRAALIARVTNVEWLLDALYGKVLTDEQYQAVRAEPTNPSKMRKLFSFTPAWNWTCKDSLLQALRESQSYLVEDLER [L63S] | -0.61 ± 0.099
11 | FIDQHRAALIARVTNVEWLLDALYGKVLTDEQYQAVRAEPTNPSKMRKLFSFTPAWNWTCKDTLLQALRESQSYLVEDLER [L63T] | -0.325 ± 0.076
12 | FIDQHRAALIARVTNVEWLLDALYGKVLTDEQYQAVRAEPTNPSKMRKLFSFTPAWNWTCKDRLLQALRESQSYLVEDLER [L63R] | -0.385 ± 0.059
13 | FIDQHRAALIARVTNVEWLLDALYGKVLTDEQYQAVRAEPTNPSKMRKLFSFTPAWNWTCKDQLLQALRESQSYLVEDLER [L63Q] | -0.243 ± 0.098
14 | FIDQHRAALIARVTNVEWLLDALYGKVLTDEQYQAVRAEPTNPSKMRKLFSFTPAWNWTCKDHLLQALRESQSYLVEDLER [L63H] | -0.425 ± 0.16
15 | FIDQHRAALIARVTNVEWLLDALYGKVLTDEQYQAVRAEPTNPSKMRKLFSFTPAWNWTCKDNLLQALRESQSYLVEDLER [L63N] | -0.556 ± 0.27
16 | FIDQHRAALIARVTNVEWLLDALYGKVLTDEQYQAVRAEPTNPSKMRKLFSFTPAWNWTCKDELLQALRESQSYLVEDLER [L63E] | -0.31 ± 0.1
17 | FIDQHRAALIARVTNVEWLLDALYGKVLTDEQYQAVRAEPTNPSKMRKLFSFTPAWNWTCKDLVLQALRESQSYLVEDLER [L64V] | -0.123 ± 0.05

Row | Variant | abundance fitness
18 | FIDQHRAALIARVTNVEWLLDALYGKVLTDEQYQAVRAEPTNPSKMRKLFSFTPAWNWTCKDLDLQALRESQSYLVEDLER [L64D] | -0.519 ± 0.12
19 | FIDQHRAALIARVTNVEWLLDALYGKVLTDEQYQAVRAEPTNPSKMRKLFSFTPAWNWTCKDLGLQALRESQSYLVEDLER [L64G] | -0.695 ± 0.076
20 | FIDQHRAALIARVTNVEWLLDALYGKVLTDEQYQAVRAEPTNPSKMRKLFSFTPAWNWTCKDLQLQALRESQSYLVEDLER [L64Q] | -0.354 ± 0.19
21 | FIDQHRAALIARVTNVEWLLDALYGKVLTDEQYQAVRAEPTNPSKMRKLFSFTPAWNWTCKDLALQALRESQSYLVEDLER [L64A] | -0.343 ± 0.065
22 | FIDQHRAALIARVTNVEWLLDALYGKVLTDEQYQAVRAEPTNPSKMRKLFSFTPAWNWTCKDLELQALRESQSYLVEDLER [L64E] | -0.944 ± 0.16
23 | FIDQHRAALIARVTNVEWLLDALYGKVLTDEQYQAVRAEPTNPSKMRKLFSFTPAWNWTCKDLPLQALRESQSYLVEDLER [L64P] | -1.02 ± 0.21
24 | FIDQHRAALIARVTNVEWLLDALYGKVLTDEQYQAVRAEPTNPSKMRKLFSFTPAWNWTCKDLMLQALRESQSYLVEDLER [L64M] | 0.163 ± 0.075
25 | FIDQHRAALIARVTNVEWLLDALYGKVLTDEQYQAVRAEPTNPSKMRKLFSFTPAWNWTCKDLILQALRESQSYLVEDLER [L64I] | -0.192 ± 0.15
26 | FIDQHRAALIARVTNVEWLLDALYGKVLTDEQYQAVRAEPTNPSKMRKLFSFTPAWNWTCKDLCLQALRESQSYLVEDLER [L64C] | -0.481 ± 0.15
27 | FIDQHRAALIARVTNVEWLLDALYGKVLTDEQYQAVRAEPTNPSKMRKLFSFTPAWNWTCKDLTLQALRESQSYLVEDLER [L64T] | -0.513 ± 0.09
28 | FIDQHRAALIARVTNVEWLLDALYGKVLTDEQYQAVRAEPTNPSKMRKLFSFTPAWNWTCKDLSLQALRESQSYLVEDLER [L64S] | -0.853 ± 0.1
29 | FIDQHRAALIARVTNVEWLLDALYGKVLTDEQYQAVRAEPTNPSKMRKLFSFTPAWNWTCKDLKLQALRESQSYLVEDLER [L64K] | -0.918 ± 0.2
30 | FIDQHRAALIARVTNVEWLLDALYGKVLTDEQYQAVRAEPTNPSKMRKLFSFTPAWNWTCKDLYLQALRESQSYLVEDLER [L64Y] | -0.75 ± 0.2
31 | FIDQHRAALIARVTNVEWLLDALYGKVLTDEQYQAVRAEPTNPSKMRKLFSFTPAWNWTCKDLFLQALRESQSYLVEDLER [L64F] | 0.2 ± 0.11
32 | FIDQHRAALIARVTNVEWLLDALYGKVLTDEQYQAVRAEPTNPSKMRKLFSFTPAWNWTCKDLWLQALRESQSYLVEDLER [L64W] | -0.961 ± 0.2
33 | FIDQHRAALIARVTNVEWLLDALYGKVLTDEQYQAVRAEPTNPSKMRKLFSFTPAWNWTCKDLLEQALRESQSYLVEDLER [L65E] | -0.142 ± 0.1
34 | FIDQHRAALIARVTNVEWLLDALYGKVLTDEQYQAVRAEPTNPSKMRKLFSFTPAWNWTCKDLLQQALRESQSYLVEDLER [L65Q] | -0.812 ± 0.18
